Assay [1] deals with TCR of the MBP-69-89 specific short-term rat T-cell line (rat). The assay can be described thus: cell-based or functional assay.
Assay [2] has as its target rat BV8S2 TCR of the A1 T-cell hybridoma (C14/BW12-12A1), specific for Gp-BP-72-89 (rat). The assay is described as follows: flow cytometry on A1 hybridoma. (In general: Flow cytometry measures light scatter and fluorescence of single cells or particles in a stream.)
For assay [3] the target is unchanged. The assay can be described thus: flow cytometry on A1 hybridoma, 10 µM complex, 17 h at 4 C, detection with OX6-PE.
Assay [4] concerns the target TCR of the cardiac myosin CM-2-specific cell line (rat). The assay is described as follows: flow cytometry on CM-2 cell line (blocked with unconjugated OX6), 10 µM complex, detection with OX6-PE.
Assay [5] addresses rat BV8S2 TCR of the A1 T-cell hybridoma (C14/BW12-12A1), specific for Gp-BP-72-89 (rat). The assay can be described thus: flow cytometry on A1 hybridoma with directly A488-labelled complex, 3 h at 4 C.

B1: β1α1/MBP-69-89 complex (rat RT1.B β1α1 construct loaded with MBP-69-89 peptide) (peptide-MHC)
chain: MGRDSPRDFVYQFKGLCYYTNGTQRIRDVIRYIYNQEEYLRYDSDVGEYRALTELGRPSAEYFNKQYLEQTRAELDTVCRHNYEGSEVRTSLRRLGGQDDIEADHVAAYGINIYQYYESRGQFTHEFDGDEEFYVDLDKKETIWRIPEFGQLTSFDPQGGLQNIAIIKHNLEILMKRSNSTQAVN
peptide: GSLPQKSQRSQDENPVVHF
In the case of B1, the inhibition of proliferation ([3H]thymidine) of MBP-69-89 specific T-cell line after pre-treatment with 10 nM complex in assay [1] was greater than 90%. Further, the fold increase in MFI over background in assay [2] amounted to 10 fold. In assay [3], this molecule had a mean fluorescence intensity (MFI) of 800 Units.

B2: β1α1/CM-2 complex (rat RT1.B β1α1 construct loaded with cardiac myosin peptide CM-2) (peptide-MHC)
chain: B1 chain
peptide: KLELQSALEEAEASLEH
On to B2, for which the mean fluorescence intensity (MFI) in assay [4] turned out to be 1800 Units.

B3: A488-conjugated β1α1 loaded with MBP-69-89 (peptide-MHC)
chain: B1 chain
peptide: GSLPQKSQRSQDENPVVHF
modifications: Alexa-488 dye conjugated (molar ratio dye/protein=1), site not stated
Regarding B3, in assay [5], the MCI is 300 Units.

B4: β1α1/MBP-55-69 complex (rat RT1.B β1α1 loaded with Gp-MBP-55-69 peptide) (peptide-MHC)
chain: B1 chain
peptide: SGKDSHHAARTTHYG
Consider B4, for which the inhibition of proliferation ([3H]thymidine) of MBP-69-89 specific T-cell line after pre-incubation with 20 µM complex in assay [1] stood at 27%.

Values taken from patent US20090280135A1.
